From the RNAGym collection of RNA variant scans (doi:10.1073/pnas.2313332121)
Fewer inactive variants are shown than the library holds.

B1: TPR 5TU (parent)
chain: GGAUCUUCUCGAUCUAACAAAAAAGACAAAUCUGCCACAAAGCUUGAGAGCAUCUUCGGAUGCAGAGGCGGCAGCCUUCGGUGGCGCGAUAGCGCCAACGUUCUCAACUAUGACACGCAAAACGCGUGCUCCGUUGAAUGGAGUUUAUCAUG

Variants of: B1
Assay: polymerase ribozyme fitness, log enrichment relative to wild type (log ratio); higher = more active; in vitro selection for triplet polymerase activity
Procedure, shortened: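 Genotype fitness is the logarithm of its enrichment divided by wild-type enrichment, using inverse-variance-weighted averages of replicates. That logarithm is base 2. Enrichment was measured by Illumina sequencing of input and output libraries from one triplicate in vitro selection round, with frozen incubation at −7 °C, on PCR-built, transcribed mutant libraries of each subunit of a heterodimeric triplet polymerase ribozyme, retaining genotypes with ≥10 input reads and ≥1 read per output.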

Variant	polymerase ribozyme fitness (log ratio)
C85U A89C	-1.13
C85U C87G G140C	≤ -4.2
C85G G141U U146A	-0.46
G92C A122C A150G	-2.28
A89U A97U U101A A107C A121C G140U U148G	≤ -4.2
A89U A150C	-3.66
C85U G94C G143A	-1.78
C85G U102C G141U	-3.43
C85U A113G	-1.86
C87G A91C U127G A142U	≤ -4.2
C85U C116G U145A	-2.57
G92A C96A C103G C105U A107G A119G C125U C149A	≤ -4.2
G86C G126U C131A	≤ -4.2
C87G A97U G117C	≤ -4.2
G92A C105U G141C	-3.39
G92A G152U	-3.58
G86U C93U	-2.59
C87U A89U	-1.2
G86U G100A C131U	≤ -4.2
U90C C96U	-3.69
C87A A97U	≤ -4.2
A91U C93A A122U G143C	≤ -4.2
C87A A107G A115U U135C A142C	≤ -4.2
A89U G94U	-1.2

Variant	polymerase ribozyme fitness (log ratio)
C87G C99U C116G	-3.37
C87U C103G C116U	-1.35
G92A A98C G133C A142U	≤ -4.2
G86A G88U G117U	≤ -4.2
A89G U134C	-0.372
C85U A89U A106G C125G	-1.15
A91U A106G	-4.01
G86A U139G	-1.36
C87U U144G	-0.986
C85G C114G G141U	-4.17
A91C A115G U146A	≤ -4.2
C87A C93G C108G	≤ -4.2
C85G G141A	-2.85
A89G A97G A113U C118A A120C G141C	≤ -4.2
G88A G92A C132G U148A	≤ -4.2
G92A A98G	-3
A89U C99G A142U	-2.38
C87U C129G	-2.63
C85G G133C U135C	≤ -4.2
C87A U146G	≤ -4.2
C85U C103G C108U A115U G143A	≤ -4.2
C85U G88A U151G	≤ -4.2
G86A G100A	-3.89
C87A U101C	-4

Variant	polymerase ribozyme fitness (log ratio)
A89C A150C	-3.81
A89U U90C G94U C114U G117U G133U	≤ -4.2
A89C G117U	-0.705
G92C C95A	-2.12
C85G C114G	-3.8
U90C U148G	≤ -4.2
G88A	-3.75
G88U	-3.89
G88C	-4.19
G88U C95U A121U A122G G124A	≤ -4.2
C85U C96G U135C	-2.57
U90C A91U C114U C118U U144G	-4.15
C85A U102G A121G A122C	≤ -4.2
G88U G126A	-2.98
C87A C125U	-4.14
G92A G126U	-2.26
G86U A91C C99G U109G	≤ -4.2
C85G A115U A121G A142G U144G	≤ -4.2
A91G C108U C116G G152A	-3.48
C85G C129G	-4.11
G88C G117C A138U G143C	≤ -4.2
C85G U130G	≤ -4.2
C87G C99U	≤ -4.2
C85G G88A	-4.01

Variant	polymerase ribozyme fitness (log ratio)
C85G G92C A121C C132U U146A	≤ -4.2
A91U U134G A137U	≤ -4.2
C85U A98G A113U U135C	-3.59
C87A A89U	≤ -4.2
A91U U127G	≤ -4.2
C87A G117C U146C	≤ -4.2
G88C G141C	-3.84
G86U C99G	-3.67
G86A U90C U102C A137G	≤ -4.2
G92C G141C	-0.623
A91U A120U	≤ -4.2
G86U A147G	-3.45
C85U C131U G143U	-2.54
A89U C95A A97U U111G G124A C149A U151C	≤ -4.2
C85G G136A	-1.31
C85U A115U C118A A120G	-3.37
C85G A122G C149A	≤ -4.2
C85U G92A G143U	-4.16
C87G C93A	-3.63
G86A A121U	-0.51
C85U C118U	-0.662
C85A G152A	-3.87
C85A G152C	-2.88
A91C U144C	-4.19

Variant	polymerase ribozyme fitness (log ratio)
G88U C105U	-3.83
C85G U139A	-4.19
A89U C96U A138G U146G	≤ -4.2
A91U C96U C103A U109C	≤ -4.2
G92A C103A G126A	-3.74
A91C C114U U139C	≤ -4.2
C87U U104G	-0.825
C87U G124A	-0.0826
A89C G143A	-0.0918
G92A G141C A147U	-3.44
C85U C103G	-3.48
C87U U102C A147C	-2.24
C87G G141U	-3.61
G88U C95G C125U	≤ -4.2
G86U G88A	≤ -4.2
G86C G117A	-1.84
C87A G126A	-4.04
C85G C132G	≤ -4.2
A89G C93A	-3.94
G86A A122U	-1.33
G88U U127C	-4.15
A91U U145G	≤ -4.2
C85U G92U U139G	-1.29
C85U A120G	-1.65

Variant	polymerase ribozyme fitness (log ratio)
C85U C99U	-2.35
C85U C99G	-1.07
A89G G117U	-0.974
C85G C118A A142U	-2.93
C85U A147G	-1.25
C87U C116G G152U	-3.11
A89G G92C A97C C114U	-3.82
A91C A106G	≤ -4.2
C87G G92C C105U	0.371
G86U A115G	-2.39
C87A A91G C103U U135C	≤ -4.2
A91U U104A G141A U148A	≤ -4.2
A89U C96U C118U A122G U139G	-0.0743
G86A A89G C103G A115G G126C	≤ -4.2
C85U G136C	-3.29
A91G G152A	-3.71
G88U A97U U102G G117U U139G	≤ -4.2
C85G C125A U144A	-3.57
G86U C118U A119G	-4.19
U90C G94U	-3.46
C85A G143C	-3.01
C85A G143U	-2.37
A89C A107U	≤ -4.2
A89C A107C	-4.06

Variant	polymerase ribozyme fitness (log ratio)
G88A C96G	-3.74
G88A C96A C103U	≤ -4.2
G86A C105G A138U	≤ -4.2
G92A A106G	-2.36
C87A A97G A142C	≤ -4.2
A91U C118G G141C	-3.94
C85G A106C G141U G143U U151A	≤ -4.2
G86U G124A U148A	-3.78
C85U A120G G124U G143C	-3.46
C85U G94A A121C A138U	-4.08
G88A A147C	-4.01
C85U G94U A97U	-0.116
C85U A98U U139A	≤ -4.2
C87U A89C U139G	-2.56
C85U G143C	-1.66
G86A C114A	-4.1
G86A C114U	-2.15
C85U C93U U134G	-4.16
C87U C123U G126U	0.848
A89U A107U G133A A142G	≤ -4.2
G86A U148C	-1.5
C85U C95A G136U A138C	≤ -4.2
C85G C93A	≤ -4.2
